# Data taken from the nanobody polyreactivity screen of Harvey et al. (2022).
# Test: yeast display, Sf9 membrane polyspecificity reagent, FACS + sequencing; frameworks hold sequencing errors
# Outline: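 Polyreactivity labels are assigned by the sorting gate from which each nanobody was recovered. The gates were low and high (top ~1%), set on anti-HA fluorescence for expression and streptavidin fluorescence for reagent binding. Before sorting, galactose-induced (36–48 hours) yeast display cells were stained for 1 hour at 4 °C with 10% biotinylated, detergent-solubilized Sf9 membrane reagent.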
row,Sequence,polyreactivity (PSR sort gate)
1,QVQLVESGGGLVQAGGSLRLSCAASGSIFNYYAMGWYRQAPGKERELVAAISSGDTTYYADSVKGRFTISRDNAKNTVYLQMNSLKPQDTAVYYCAAKPRSQVRYGYWGQGTQVTVSS,low polyreactivity
2,QVQLVESGGGLVQAGGSLRLSCAASGSIFNYYAMGWYRQAPGKERELVAAITSSDGRTFYADSVKGRFTISRDNAKNKVYLQMNSLKPEDTAFYYCAAEWTSRYSTYEYWGQGTQVTVSS,low polyreactivity
3,QVQLVESGGGLVQAGGSLRLSCAASGSIFNYYAMGWYRQAPGKERELVAGITTSGGSTYYADSVKGRFTISRDNAKNTVYLQMNSLKPEDTAVYYCAAYDYISSTYFLDDYWGQGTQVTVSS,low polyreactivity
4,QVQLVESGGGLVQAGGSLRLSCAASGSIFNYYAMGWYRQAPGKERELVATITTRDGTTYYADSVKGRFTISRDNAKNTVYLQMNSLKPEDTAVYYCAKSWWPSRRTYSFYYWGQGTQVTVSS,high polyreactivity
5,QVQLVESGGGLVQAGGSLRLSCAASGSIFNYYAMGWYRQAPGQERELVASISRGGSTNYADSVKGRFTISRDNAKNTVYLQMNSLKPEDTAVYYCNAEGWPGNVVYGYYYWGQGTQVTVSS,low polyreactivity
6,QVQLVESGGGLVQAGGSLRLSCAASGSIFNYYGMGWYRQAPGKERELVAAISYSGGSTYYADSVKGRFTISRDNAKNTVYLQMNSLKPEDTAVYYCAKRYYPVIRYHSTYDSWGQGTQVTVSS,low polyreactivity
7,QVQLVESGGGLVQAGGSLRLSCAASGSIFNYYTMGWYRQAPGKERELVAVITWSDDSTYYADSVKGRFTISRDNAKNTVYLQMNSLKPEDTAVYYCNARSWGWYRIAYGYWGQGTQVTVSS,low polyreactivity
8,QVQLVESGGGLVQAGGSLRLSCAASGSIFPAYDMGWYRQAPGKERELVAAIDRGGSTYYADSVKGRFTISRDNAKNTVYLQMNSLKPEDTAVYYCATDGQEYPNYISSAGFDYWGQGTQVTVSS,low polyreactivity
9,QVQLVESGGGLVQAGGSLRLSCAASGSIFPDYAMGWYRPAPGKERELVAAIDTSTTDTYYADSVKGRFTISRDNAKNTVYLQMKSQKPEDTAVYYSAADAYDDPYGFWGQGTQVTVSS,high polyreactivity
10,QVQLVESGGGLVQAGGSLRLSCAASGSIFPDYAMGWYRQAPGKERELVAADSVKGRFTISRDNAKNTVYLQMNSLKPEDTAVYYCNKDYIIRRGPIVYYGFDYWGQGNQVTVSS,low polyreactivity
11,QVQLVESGGGLVQAGGSLRLSCAASGSIFPDYAMGWYRQAPGKERELVAAITWRDDSTYFADSVKGRFTISRDNAKNTVYLQMNSLKPEDTAVYYCNASALDPLYAKDEYWGQGTQVTVSS,low polyreactivity
12,QVQLVESGGGLVQAGGSLRLSCAASGSIFPDYAMGWYRQAPGKERELVAGISSNSGSTYYADSVKGRFTISRDNAKNTVYLQMTSLKPEDTAVYYCAKDSFWRDTGYTDGDYWGQGTQVTVSS,low polyreactivity
13,QVQLVESGGGLVQAGGSLRLSCAASGSIFPGNAMGWYRQEPRKERELVAAITKGDGSTNYADSVKGRFTISRDNAKNTVYLQLNSLITEDTAVYYCADRSRVFGYQGYDYWGQGTQVTVSS,low polyreactivity
14,QVQLVESGGGLVQAGGSLRLSCAASGSIFPGYAMGWDRQAPGKERQLVATITWSGGSTYYADSVKGRFTISRDNAKNTVYLQMNSLKPEDTAVYYCIADSNWYYQWNYYGLYDYWGQGTQVTVSS,low polyreactivity
15,QVQLVESGGGLVQAGGSLRLSCAASGSIFPGYAMGWSRQAPGKERELVATISTGGSTYYADSVKGRFTISRDNAKNTVYLQMNSLKPEDTAVYYCNADIRSYLRYSLRRYDDYDYWGQGTQVTVSS,low polyreactivity
16,QVQLVESGGGLVQAGGSLRLSCAASGSIFPGYAMGWYRQAPGKERELVATITWSASETYYADSVKGRFTISRDNAKYTVYLQMNSLKPEDTAVYYCNAEVYELFVVYSALDYWGQGTQVTVSS,low polyreactivity
17,QVQLVESGGGLVQAGGSLRLSCAASGSIFPGYTMGWYRQAPGKERELVAAISRRGGSTYYADSVKGRITISRDNAKNSVYLQMNSLKPEDTAVYYCAKVPDYRFEYWGQGTQVTVSS,high polyreactivity
18,QVQLVESGGGLVQAGGSLRLSCAASGSIFPHNAMGWYRQAPGKERELVAAISVSGGSTYYADSVKGRFTISRDNAKNTVYLQMNSLKPEDTAVYYCATRYGRARAYYYWGQGTQVTVSS,high polyreactivity
19,QVQLVESGGGLVQAGGSLRLSCAASGSIFPHYAMGWYRQAPGKERELVAAISRSGTSTYYADSVKGRFTISRDNAKNTVYLQMNSLKPEDTAVYYCAAGYWFSYSRVTRYDYWGQGTQVTVSS,high polyreactivity
20,QVQLVESGGGLVQAGGSLRLSCAASGSIFPLNAMGWYRQAPGKERELVATISWRGGITYYADSVKGRFTISRDNAKNTVYLQMNSLKPEDTAVYYCATVGRWNSLWYRYRYDYWGQGTQVTVSS,low polyreactivity
21,QVQLVESGGGLVQAGGSLRLSCAASGSIFPLYAMGWYRQAPGKERELVAAISWSGGSTYYADSVKGRFTISRDNAKNTVYLKMNSLKPEDTAVYYCATLYISTSGYIYEGDYWGQGTQVTVSS,high polyreactivity
22,QVQLVESGGGLVQAGGSLRLSCAASGSIFPPNAMGWDRQAPGKERELVAGISQSGGSTYYAESVKGRFTISRDNAKNTVYLQMNSLKPEDTAVYYCARSFYSGRRYYYWGQGTQVTVSS,high polyreactivity

row,Sequence,polyreactivity (PSR sort gate)
1,QVQLVESGGGLVQAGGSLRLSCAASGSIFPPYAMGWYRPAPGKERELVAAINSGGSTNYADSVKGRFTISRDNAKNTVYLQMNSLIPEDTAVYYCNVDESYDWRTRKYDSWGQVTQVTVSS,low polyreactivity
2,QVQLVESGGGLVQAGGSLRLSCAASGSIFPPYAMGWYRQAPGKERELVAAIRRGSSTYYADSVKGRFTISRDNAKNTVYLQMNSLKPEDTAVYYCAARGRYRIGPGRYGKRYDYWGQGTQVTVSS,high polyreactivity
3,QVQLVESGGGLVQAGGSLRLSCAASGSIFPPYAMGWYRQAPGKERELVATITIRGGSTYYADSVKGRFTISRDNAKNTVYLQMNSLKPEDTAVYYCAADYTKYYRRYYYWGQGTQVTVSS,high polyreactivity
4,QVQLVESGGGLVQAGGSLRLSCAASGSIFPQYAMGWYRQAPGKERELVAAISSSGGRTYYADSVKGRFTISRDNAKNTVYLQMNSLKPEDTAVYYCAADGSYAIGGYGYWGQGTQVTVSS,high polyreactivity
5,QVQLVESGGGLVQAGGSLRLSCAASGSIFPQYAMGWYRQAPGKERELVAAITRSGGGTHYADSVKGRFTISRDYAKNTVYFQMNSLKPEDTAVYYCAKAGYRSEFEYWGQGTQVTVSS,low polyreactivity
6,QVQLVESGGGLVQAGGSLRLSCAASGSIFPRNAMGWYRQAPGKERELVAGISSGGSTNYADSVKGRFTISRDNAKNTVYLQMNSLKPEDTAVYYCAARQWIRNLGFGYSIYYYWGLGTQVTVSS,high polyreactivity
7,QVQLVESGGGLVQAGGSLRLSCAASGSIFPRYAMGWYRQAPGKERELVAAITGSGSSTYYADSVKGRFTISRDNAKNTVYLQMNSLKPEDTAVYYCAARKARPPCPHPFDYYWGEGTQVTVSS,low polyreactivity
8,QVQLVESGGGLVQAGGSLRLSCAASGSIFPRYAMGWYRQAPGKERELVAAITNGGSTDYADSVKGRFTISRDNAKKTVYLLMNSLKPEDTAGYYCAADLAVGIYPEDGDYWGQGTKVTVSS,low polyreactivity
9,QVQLVESGGGLVQAGGSLRLSCAASGSIFPRYFMGWYRQAPGKERELVAAISQSGGSTYYADSVKGRFTISRDNAKNTVYLQMNSLKPEDTAVYYCAAEVRGWRVDYYYWGQGTQVTVSS,high polyreactivity
10,QVQLVESGGGLVQAGGSLRLSCAASGSIFPRYVMGWYRQAPGTARELVAAISGSGGSTYYADSVKGRFTISRDNAKNTVYLQMNSLKPEDTAVYYCNKLRRRVNRDIDDYWGQGTQVTVSS,high polyreactivity
11,QVQLVESGGGLVQAGGSLRLSCAASGSIFPSNAMGWYRQAPGKERELVAAINRDGISNYADSVKGRFTISRDNAKNTVYLQMNSLKPEDTAVYYCAAEFAWQWWEYGYWGQGTQVTVSS,low polyreactivity
12,QVQLVESGGGLVQAGGSLRLSCAASGSIFPSYAMGWYRPAPGIERELVAAINWDGGSTFYADSVKGRFTISRDNAKNTVYLQMNSLKPEDTAVYYCAKYTYQEIRNVGRRGHYYWGQGTQVTVSS,low polyreactivity
13,QVQLVESGGGLVQAGGSLRLSCAASGSIFPSYAMGWYRQAPGKERELVATISGSGTRTYYADSVKGRFTISRDNAKNTVYLQMNILKPEDTAVYYCAADPWLGTGRYDYWGQGTQVTVSS,low polyreactivity
14,QVQLVESGGGLVQAGGSLRLSCAASGSIFPTYAMGCYRQAPGKERELVAAIRSGSNTYYADSVKGRFTISRDNAKNTVYLQMNSLKPEDTAVYYCNVGPQRKYPGRRTVPFGYWGQGTQVTVSS,low polyreactivity
15,QVQLVESGGGLVQAGGSLRLSCAASGSIFPVNVMGWYRQAPGKERELVADITSTGTYYADSVKGRFTISRDNAKNTVYLQMNSLKPEDTAVYYCAKAGGSWYRRYYYWGQGTQVTVSS,high polyreactivity
16,QVQLVESGGGLVQAGGSLRLSCAASGSIFPVYAMGWYRPAPGKERELVAAISLRAGNTYYADSVKGRFTISRDNAKNTVYLQMNSLKPEDTAVYDCAVELFRSTTIYDYWGQGTLVTVSS,high polyreactivity
17,QVQLVESGGGLVQAGGSLRLSCAASGSIFPVYAMGWYRQAPGKERELVAAISWIGGGTYYADSVKGRFTISRDNAKNTVYLQMNSLKPEDTAVYYCAAVPYTSEYDYWGQGTKVTVSS,high polyreactivity
18,QVQLVESGGGLVQAGGSLRLSCAASGSIFPVYAMGWYRQAPGKERELVATIRSGGARTYYADSVKGRFTISRDNAKNTVYLQMNSLKPEDTAVYYCATRWPHYGGYYYWGQGTQVTVSS,high polyreactivity
19,QVQLVESGGGLVQAGGSLRLSCAASGSIFPVYAMGWYRQAPGKQRELVAAITTAGRTYYADSVKGRFTISRDNAKNTVYLQMNSLKPEDTAVYYCNARSRKGLTVDGGYWGQGTQVTVSS,high polyreactivity
20,QVQLVESGGGLVQAGGSLRLSCAASGSIFPWYAMGWYRQAPGKEKELVAAIRWRDGRTYYADSVKGRFTISRDNAKNTVYLQMNSLKPEDTAVYYCAAVSTDKYVYGVDVYLYDYWGQGTQVTVSS,low polyreactivity
21,QVQLVESGGGLVQAGGSLRLSCAASGSIFPWYAMGWYRQAPGNERELVAAINQIGGGGTNYADSVKGRFTISRDNAKNTVYLQMNSLKPEDTAVYYCAADHVWIRAYRFTKGDDYWGQGTQVTVSS,low polyreactivity
